In the supplement of paper PMC10126150:
± gives the standard deviation of the averaged measurements.

Tested on: ATP
Assay: switch fluorescence ratio, 500 uM ATP over buffer (Cy3 cluster intensity, sum of 5 cycles each) (fold (ratio)); higher = stronger signal-on switching upon ATP binding; sequences stand for … in TCGTCGGCAGCGTCAGATGTGTATAAGAGACAGTTTTTTTTTTTTTTTTTTTTTTTTT…TC
Details: aptamer strand: ATP DNA aptamer (quencher-CACCTGGGGGAGTATTGCGGAGGAAGG + anchor), 100 nM annealed; ATP concentration: 500 uM
Method in brief: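 Imaging in selection buffer was followed by imaging after 15 min with 500 uM ATP at 22 °C, for Cy3-labelled switching-strand clusters annealed to 100 nM quencher-labelled ATP aptamer on a modified Illumina MiSeq flow-cell. Five of these buffer/ATP cycles ran, separated by NaOH stripping and re-annealing. The fluorescence ratio per cluster is summed target-cycle over summed buffer-cycle Cy3 intensity, averaged per switch-domain sequence; clusters outside 100-1000 RFU were removed.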
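Note: ATP exposure 15 min at 22 °C before imaging.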

GGGGGGAGTG and GGGGGGATTG are within error of each other in switch fluorescence ratio: 0.975 ± 0.029 for the first, 0.99 ± 0.025 for the second.

GGGGGGCATC and GGGGGGCGGT are within error of each other in switch fluorescence ratio: 1.01 ± 0.024 for the first, 0.989 ± 0.015 for the second.

GGGGGGCTTA and GGGGGGGAT are within error of each other in switch fluorescence ratio: 0.999 ± 0.018 for the first, 1.02 ± 0.025 for the second.

GGGGGGGCCG and GGGGGGGCGG are within error of each other in switch fluorescence ratio: 0.993 ± 0.048 for the first, 1 ± 0.024 for the second.

GGGGGGGGAG and GGGGGGGGCC are within error of each other in switch fluorescence ratio: 1.01 ± 0.03 for the first, 0.998 ± 0.053 for the second.

GGGGGGGTAT and GGGGGGGTGA are the same in switch fluorescence ratio: 1.01 ± 0.036 for the first, 1.01 ± 0.038 for the second.

GGGGGGGTT and GGGGGGGTTT are within error of each other in switch fluorescence ratio: 1 ± 0.025 for the first, 1.01 ± 0.074 for the second.

GGGGGGTAAG and GGGGGGTCGC are within error of each other in switch fluorescence ratio: 1 ± 0.021 for the first, 0.99 ± 0.041 for the second.

GGGGGGTGG and GGGGGGTGTC are within error of each other in switch fluorescence ratio: 0.9912 ± 0.0055 for the first, 1.01 ± 0.038 for the second.

GGGGGTAAAA and GGGGGTAAGT are the same in switch fluorescence ratio: 1.01 ± 0.029 for the first, 1.01 ± 0.02 for the second.

GGGGGTAATA and GGGGGTAATG are within error of each other in switch fluorescence ratio: 0.999 ± 0.021 for the first, 0.974 ± 0.035 for the second.

First: GGGGGTATAC
Second: GGGGGTCATC
The switch fluorescence ratio of the first is higher: 1.28 ± 0.11 for the first, 0.971 ± 0.011 for the second.

GGGGGTCCAG and GGGGGTCCCT are within error of each other in switch fluorescence ratio: 0.997 ± 0.022 for the first, 1.01 ± 0.015 for the second.

First: GGGGGTCCGC
Second: GGGGGTCTGT
The switch fluorescence ratio of the first is higher: 1.022 ± 0.0071 for the first, 0.972 ± 0.013 for the second.

GGGGGTGACG and GGGGGTGGGC are within error of each other in switch fluorescence ratio: 0.995 ± 0.11 for the first, 1.03 ± 0.035 for the second.

GGGGGTGTTT and GGGGGTTACA are within error of each other in switch fluorescence ratio: 0.998 ± 0.037 for the first, 1.005 ± 0.005 for the second.

GGGGGTTAGG and GGGGGTTAGT are the same in switch fluorescence ratio: 1.01 ± 0.037 for the first, 1.01 ± 0.014 for the second.

GGGGGTTCCC and GGGGGTTCCT are within error of each other in switch fluorescence ratio: 0.9833 ± 0.0017 for the first, 1 ± 0.032 for the second.

GGGGGTTCGT and GGGGGTTTAG are within error of each other in switch fluorescence ratio: 0.98 ± 0.036 for the first, 1 ± 0.028 for the second.

GGGGGTTTGA and GGGGGTTTGG are within error of each other in switch fluorescence ratio: 1 ± 0.022 for the first, 0.991 ± 0.03 for the second.

GGGGTAAAAG and GGGGTAAACT are within error of each other in switch fluorescence ratio: 1.08 ± 0.2 for the first, 1.01 ± 0.034 for the second.

GGGGTAAAGC and GGGGTAACAG are within error of each other in switch fluorescence ratio: 1 ± 0.018 for the first, 1.01 ± 0.044 for the second.

GGGGTAAGTG and GGGGTACAGT are within error of each other in switch fluorescence ratio: 0.987 ± 0.04 for the first, 0.9946 ± 0.0091 for the second.

GGGGTACGCT and GGGGTACTGG are within error of each other in switch fluorescence ratio: 0.99523 ± 0.00067 for the first, 1.01 ± 0.016 for the second.

GGGGTACTTT and GGGGTAGCCC are within error of each other in switch fluorescence ratio: 0.991 ± 0.026 for the first, 0.9977 ± 0.004 for the second.

GGGGTAGGAG and GGGGTAGTAG are within error of each other in switch fluorescence ratio: 1.03 ± 0.093 for the first, 0.979 ± 0.013 for the second.

GGGGTAGTTC and GGGGTATTAT are within error of each other in switch fluorescence ratio: 1.01 ± 0.028 for the first, 1 ± 0.028 for the second.

GGGGTATTTT and GGGGTCAGTC are within error of each other in switch fluorescence ratio: 0.997 ± 0.023 for the first, 0.9933 ± 0.0099 for the second.

GGGGTCAGTG and GGGGTCCGTG are within error of each other in switch fluorescence ratio: 0.998 ± 0.054 for the first, 0.993 ± 0.067 for the second.

GGGGTCCTAG and GGGGTCCTGA are within error of each other in switch fluorescence ratio: 0.9959 ± 0.0065 for the first, 1.01 ± 0.062 for the second.

GGGGTCGGTA and GGGGTCTGCG are within error of each other in switch fluorescence ratio: 0.9893 ± 0.0032 for the first, 1.03 ± 0.059 for the second.

GGGGTGAATC and GGGGTGAGGA are within error of each other in switch fluorescence ratio: 1.03 ± 0.045 for the first, 0.981 ± 0.037 for the second.

GGGGTGATAT and GGGGTGATCG are within error of each other in switch fluorescence ratio: 1.58 ± 0.78 for the first, 0.9842 ± 0.0077 for the second.

GGGGTGCATG and GGGGTGCCCG are within error of each other in switch fluorescence ratio: 0.997 ± 0.054 for the first, 0.948 ± 0.018 for the second.

GGGGTGCGGT and GGGGTGGAAA are within error of each other in switch fluorescence ratio: 0.998 ± 0.017 for the first, 0.979 ± 0.018 for the second.

GGGGTGGCTA and GGGGTGGTGT are within error of each other in switch fluorescence ratio: 1.02 ± 0.019 for the first, 1.03 ± 0.027 for the second.

GGGGTGTACA and GGGGTGTGAA are within error of each other in switch fluorescence ratio: 0.969 ± 0.027 for the first, 1.03 ± 0.059 for the second.

GGGGTTAAAC and GGGGTTAGAG are within error of each other in switch fluorescence ratio: 1.04 ± 0.034 for the first, 0.991 ± 0.033 for the second.

GGGGTTATCA and GGGGTTATTG are within error of each other in switch fluorescence ratio: 0.99 ± 0.014 for the first, 0.986 ± 0.038 for the second.

GGGGTTCGTG and GGGGTTGTGC are within error of each other in switch fluorescence ratio: 0.975 ± 0.041 for the first, 0.971 ± 0.035 for the second.

GGGGTTTCGG and GGGGTTTCTG are within error of each other in switch fluorescence ratio: 1.02 ± 0.087 for the first, 0.986 ± 0.03 for the second.

GGGGTTTGG and GGGGTTTTCG are within error of each other in switch fluorescence ratio: 1.004 ± 0.0067 for the first, 1.01 ± 0.029 for the second.

GGGGTTTTG and GGGTAAATCG are within error of each other in switch fluorescence ratio: 0.953 ± 0.0088 for the first, 0.981 ± 0.068 for the second.

GGGTAAGCTT and GGGTAAGGGC are within error of each other in switch fluorescence ratio: 0.996 ± 0.016 for the first, 1.01 ± 0.031 for the second.

GGGTAATGAG and GGGTAATGTG are within error of each other in switch fluorescence ratio: 1 ± 0.022 for the first, 0.982 ± 0.029 for the second.

GGGTAATTAT and GGGTACAGTT are the same in switch fluorescence ratio: 1.01 ± 0.036 for the first, 1.01 ± 0.018 for the second.

GGGTACGTGG and GGGTACGTGT are within error of each other in switch fluorescence ratio: 1.005 ± 0.009 for the first, 0.989 ± 0.029 for the second.

GGGTACTCGC and GGGTAGAAGT are within error of each other in switch fluorescence ratio: 1.03 ± 0.065 for the first, 0.988 ± 0.023 for the second.

First: GGGTAGATGG
Second: GGGTAGCCGG
The switch fluorescence ratio of the first is lower: 0.9704 ± 0.0062 for the first, 1 ± 0.0042 for the second.

GGGTAGCTAG and GGGTAGCTCT are within error of each other in switch fluorescence ratio: 1.04 ± 0.022 for the first, 1.06 ± 0.076 for the second.
